From doi:10.1101/2025.03.28.645925 (bioRxiv, 2025)
Residue numbers refer to the chain shown, from its start. Numbers in names are those of the source. Where “and” joins values, the source holds several entries; their conditions need not be identical. Equal values may be shown once. Read-outs that look alike come from different tables or passages of the source.

Columns and labels:
[1] = target: NrdR2^PAO (GSGSGS-NrdR2, P. aeruginosa NrdR after TEV digestion) (P. aeruginosa PAO1); assay: SEC-MALS
[2] = target: NrdR2^PAO (GSGSGS-NrdR2, P. aeruginosa NrdR after TEV digestion) (P. aeruginosa PAO1); assay: SEC-MALS; remark: listed apart in the source
[3] = target: NrdR2^PAO (GSGSGS-NrdR2, P. aeruginosa NrdR after TEV digestion) (P. aeruginosa PAO1); assay: SEC-MALS; remark: listed apart in the source
[4] = target: NrdR1^PAO (P. aeruginosa NrdR with a two amino acid linker after SUMO protease digestion) (P. aeruginosa PAO1); assay: SEC
[5] = target: NrdR1^PAO (P. aeruginosa NrdR with a two amino acid linker after SUMO protease digestion) (P. aeruginosa PAO1); assay: SEC; remark: listed apart in the source
SEC-MALS [6] = target: the molecule itself; assay: SEC-MALS
P0A8D0 [7] = assay: SEC-MALS
P0A8D0 [8] = assay: SEC-MALS; remark: listed apart in the source
SEC-MALS [9] = target: the molecule itself; assay: SEC-MALS; remark: listed apart in the source
SEC-MALS [10] = target: the molecule itself; assay: SEC-MALS; remark: listed apart in the source
SEC = target: the molecule itself; assay: SEC
SEC-MALS [11] = target: the molecule itself; assay: SEC-MALS; remark: listed apart in the source
SEC-MALS [12] = target: the molecule itself; assay: SEC-MALS; remark: listed apart in the source
SEC-MALS [13] = target: the molecule itself; assay: SEC-MALS; remark: listed apart in the source

Molecule: NrdR2^PAO (GSGSGS-NrdR2, P. aeruginosa NrdR after TEV digestion) (natural protein)
- stoichiometry N [1]: > 2
- stoichiometry N [2]: > 2
- stoichiometry N [3]: 2

Molecule: NrdR1^PAO (P. aeruginosa NrdR with a two amino acid linker after SUMO protease digestion) (natural protein)
- stoichiometry N [4]: 6 and 2
- stoichiometry N [5]: 2 and 3

B1: SUMO-NrdR2^ECO Δ(132-149) (domain or fragment, E. coli K-12 MG1655)
chain: ENLYPQGSGSGSMHCPFCFAVDTKVIDSRLVGEGSSVRRRRQCLVCNERFTTFEVAELVMPRVVKSNDVREPFNEEKLRSGMLRALEKRPVSSDDVEMAINHIKSQLRATGEREVPSKMIGNLVMEQLKKLDKVAYIRFASVY
- stoichiometry N (SEC-MALS [6]): 2

B2: SUMO-NrdR2^ECO E42A (natural protein, E. coli K-12 MG1655)
chain: ENLYPQGSGSGSMHCPFCFAVDTKVIDSRLVGEGSSVRRRRQCLVCNERFTTFAVAELVMPRVVKSNDVREPFNEEKLRSGMLRALEKRPVSSDDVEMAINHIKSQLRATGEREVPSKMIGNLVMEQLKKLDKVAYIRFASVYRSFEDIKEFGEEIARLED
- stoichiometry N (SEC-MALS [6]): 2
- percent of the protein mass in the monomer peak (P0A8D0 [7]): 63% in a peak with average Mw 33.21 kDa
- percent of the protein mass in the monomer peak (P0A8D0 [8]): 83% in a peak with average Mw 36.88 kDa

B3: SUMO-NrdR2^ECO (undigested 6His-SUMO-TEVcs-(SGSGS)-NrdR, E. coli), wild type (natural protein, E. coli K-12 MG1655)
chain: B2 chain with A54E
- stoichiometry N (SEC-MALS [6]): 2 and ≥ 4
- stoichiometry N (SEC-MALS [9]): 4 and 8
- stoichiometry N (SEC-MALS [10]): 12

B4: SUMO-NrdR2^ECO Y131A (natural protein, E. coli K-12 MG1655)
chain: B2 chain with A54E, Y143A
- stoichiometry N (SEC-MALS [6]): 2
- stoichiometry N (SEC-MALS [10]): 4 and 8 and 3

B5: SUMO-NrdR2^ECO E36A (natural protein, E. coli K-12 MG1655)
chain: B2 chain with E48A, A54E
- stoichiometry N (SEC-MALS [6]): 2 and ≥ 4
- stoichiometry N (SEC-MALS [9]): 3

B6: NrdR^PAO-H6 (P. aeruginosa NrdR with a C-terminal 6His-tag) (natural protein, P. aeruginosa PAO1, UniProt Q9HWX1 1-154, looked up)
chain: MHCPFCGAHDTKVIDSRLVAEGDQVRRRRECLACGERFTTFETAELVMPRLIKQDGSRQPFDEDKLRAGMQRALEKRPVSVERLEAAIGHIKHQLRATGEREIKSRVLGELVMAELQKLDEVAYIRFASVYRRFQDLNEFREEIERLAREPAKE
- binding result (SEC): binds

B7: NrdR2^ECO (GSGSGS-NrdR2, E. coli NrdR after TEV digestion) (natural protein, E. coli K-12 MG1655)
chain: GSGSGSMHCPFCFAVDTKVIDSRLVGEGSSVRRRRQCLVCNERFTTFEVAELVMPRVVKSNDVREPFNEEKLRSGMLRALEKRPVSSDDVEMAINHIKSQLRATGEREVPSKMIGNLVMEQLKKLDKVAYIRFASVYRSFEDIKEFGEEIARLED
- stoichiometry N (SEC-MALS [11]): 3
- stoichiometry N (SEC-MALS [6]): 2
- stoichiometry N (SEC-MALS [12]): 4 to 10 (2×) and 8
- stoichiometry N (SEC-MALS [13]): 6
- stoichiometry N (SEC-MALS [10]): 15 to 16
